Test results taken from patent US20240189392A1 (AMBRX, published 2024).

Key:
Experiment in all cases: cell-based or functional assay
human RXFP1 = biological target: T1, human RXFP1 (human, UniProt Q9HBX9 1-757)
T1 sequence (looked up): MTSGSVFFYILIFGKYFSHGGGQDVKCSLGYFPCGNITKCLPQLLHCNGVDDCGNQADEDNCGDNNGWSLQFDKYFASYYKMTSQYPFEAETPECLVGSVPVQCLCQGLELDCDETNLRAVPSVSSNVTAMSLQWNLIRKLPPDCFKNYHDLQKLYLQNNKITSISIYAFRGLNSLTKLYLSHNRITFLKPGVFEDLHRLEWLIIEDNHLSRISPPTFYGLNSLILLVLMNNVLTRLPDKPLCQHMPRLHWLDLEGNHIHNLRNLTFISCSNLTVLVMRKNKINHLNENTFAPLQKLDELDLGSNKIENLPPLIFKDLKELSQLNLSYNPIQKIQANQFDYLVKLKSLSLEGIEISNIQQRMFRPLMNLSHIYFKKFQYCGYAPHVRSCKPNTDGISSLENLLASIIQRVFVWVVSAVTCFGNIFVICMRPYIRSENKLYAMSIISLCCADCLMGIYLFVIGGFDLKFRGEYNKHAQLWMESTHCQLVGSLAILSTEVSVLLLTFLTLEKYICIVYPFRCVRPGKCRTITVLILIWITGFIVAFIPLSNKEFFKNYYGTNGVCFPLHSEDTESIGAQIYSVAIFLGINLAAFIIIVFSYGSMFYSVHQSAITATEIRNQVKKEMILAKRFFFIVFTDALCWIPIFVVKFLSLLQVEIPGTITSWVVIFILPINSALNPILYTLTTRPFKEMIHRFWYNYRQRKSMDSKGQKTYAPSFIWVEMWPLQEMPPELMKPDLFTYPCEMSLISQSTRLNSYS

dog RXFP1 = dog RXFP1 (dog)
mouse RXFP1 = biological target: T2, mouse RXFP1 (mouse, UniProt Q6R6I7 1-758)
T2 sequence (looked up): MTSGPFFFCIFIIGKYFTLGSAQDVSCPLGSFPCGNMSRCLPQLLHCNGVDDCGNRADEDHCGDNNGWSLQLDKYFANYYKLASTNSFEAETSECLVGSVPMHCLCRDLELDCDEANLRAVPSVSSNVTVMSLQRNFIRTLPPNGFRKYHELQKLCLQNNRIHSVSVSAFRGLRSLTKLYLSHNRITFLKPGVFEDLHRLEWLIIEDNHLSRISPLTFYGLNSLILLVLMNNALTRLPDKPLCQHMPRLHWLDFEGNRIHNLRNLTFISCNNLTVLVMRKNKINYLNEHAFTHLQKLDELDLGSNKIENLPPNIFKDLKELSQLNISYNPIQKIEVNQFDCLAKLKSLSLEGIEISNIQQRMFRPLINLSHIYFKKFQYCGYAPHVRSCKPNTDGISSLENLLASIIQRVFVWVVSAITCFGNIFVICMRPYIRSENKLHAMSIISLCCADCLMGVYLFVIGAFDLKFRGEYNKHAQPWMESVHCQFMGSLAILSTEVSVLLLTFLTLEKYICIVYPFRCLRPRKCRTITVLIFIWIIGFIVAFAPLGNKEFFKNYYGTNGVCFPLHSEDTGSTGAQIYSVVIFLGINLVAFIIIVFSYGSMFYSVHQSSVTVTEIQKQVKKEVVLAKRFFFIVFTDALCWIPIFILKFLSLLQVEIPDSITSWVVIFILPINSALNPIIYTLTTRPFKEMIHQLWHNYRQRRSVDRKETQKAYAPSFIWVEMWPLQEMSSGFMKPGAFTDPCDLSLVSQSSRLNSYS

human RXFP3 = biological target: T3, human RXFP3 (human, UniProt Q9NSD7 1-469)
T3 sequence (looked up): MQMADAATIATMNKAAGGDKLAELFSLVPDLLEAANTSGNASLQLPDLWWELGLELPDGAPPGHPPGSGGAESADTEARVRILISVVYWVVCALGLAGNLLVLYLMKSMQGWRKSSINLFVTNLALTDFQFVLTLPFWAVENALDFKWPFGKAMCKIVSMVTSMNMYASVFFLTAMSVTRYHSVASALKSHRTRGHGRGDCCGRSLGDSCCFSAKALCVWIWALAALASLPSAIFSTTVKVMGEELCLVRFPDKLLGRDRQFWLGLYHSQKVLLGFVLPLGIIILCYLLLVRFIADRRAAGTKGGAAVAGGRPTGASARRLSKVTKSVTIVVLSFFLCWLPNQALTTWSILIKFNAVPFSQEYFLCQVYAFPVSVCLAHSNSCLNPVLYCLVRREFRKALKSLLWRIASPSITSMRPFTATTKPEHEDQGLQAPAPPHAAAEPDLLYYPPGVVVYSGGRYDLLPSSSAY

human RXFP4 = human RXFP4 (human, UniProt Q8TDU9 1-374)
Sequence of human RXFP4 (Q8TDU9 whole entry): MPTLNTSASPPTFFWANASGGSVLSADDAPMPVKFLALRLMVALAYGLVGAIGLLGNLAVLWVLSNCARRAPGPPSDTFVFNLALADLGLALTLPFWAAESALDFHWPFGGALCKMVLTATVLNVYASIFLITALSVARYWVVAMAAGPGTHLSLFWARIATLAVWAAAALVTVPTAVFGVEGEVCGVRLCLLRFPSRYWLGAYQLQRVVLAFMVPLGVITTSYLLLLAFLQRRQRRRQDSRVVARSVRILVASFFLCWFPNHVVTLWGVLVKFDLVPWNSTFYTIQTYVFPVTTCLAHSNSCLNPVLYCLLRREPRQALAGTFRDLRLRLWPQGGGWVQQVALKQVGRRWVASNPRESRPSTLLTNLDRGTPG

cynomolgus monkey RXFP1 = biological target: T4, cynomolgus monkey RXFP1 (cynomolgus monkey, UniProt H9ERA2 1-757 (rhesus entry))
T4 sequence: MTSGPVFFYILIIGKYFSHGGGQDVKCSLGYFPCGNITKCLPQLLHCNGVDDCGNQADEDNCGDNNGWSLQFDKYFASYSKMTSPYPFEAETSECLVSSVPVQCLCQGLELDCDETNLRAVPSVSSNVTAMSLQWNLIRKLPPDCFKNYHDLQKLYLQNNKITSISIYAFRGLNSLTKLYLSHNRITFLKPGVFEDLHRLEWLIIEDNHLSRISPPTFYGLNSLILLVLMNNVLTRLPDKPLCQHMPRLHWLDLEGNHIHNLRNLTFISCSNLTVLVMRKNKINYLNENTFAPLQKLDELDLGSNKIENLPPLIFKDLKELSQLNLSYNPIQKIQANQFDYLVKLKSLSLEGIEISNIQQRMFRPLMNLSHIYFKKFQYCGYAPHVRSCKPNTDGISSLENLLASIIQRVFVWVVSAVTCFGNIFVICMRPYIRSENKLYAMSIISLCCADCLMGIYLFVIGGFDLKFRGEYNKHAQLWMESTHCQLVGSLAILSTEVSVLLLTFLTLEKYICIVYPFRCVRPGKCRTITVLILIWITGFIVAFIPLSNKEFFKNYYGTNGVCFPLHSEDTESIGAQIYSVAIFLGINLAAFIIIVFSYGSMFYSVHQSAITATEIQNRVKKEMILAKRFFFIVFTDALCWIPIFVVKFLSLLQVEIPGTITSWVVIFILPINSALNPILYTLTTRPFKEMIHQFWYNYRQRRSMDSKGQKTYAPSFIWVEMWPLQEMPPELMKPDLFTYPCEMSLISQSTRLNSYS

B1: RLX-A-AQ1-20KPEG (ligand)
chain 1: XLYSALANKCCHVGCTKRSLARFC
chain 2: ASWMEEVIKLCGRELVRAQIAICGMSTWS
modifications: pACF (para-acetylphenylalanine) at position 1 of the A chain, linked to a 20 kDA PEG via an oxime linkage
With B1 the “In vitro Activity Fold Loss” value (human RXFP1) was 12 fold, the “Potency Ratio (RLX-A-AQ1-20KPEG/WT-RLX), cAMP assay, dog RXFP1/CHO-K1 cells” value (dog RXFP1) was 27 fold and the “RLX-A-AQ1-20KPEG Potency Ratio (hRXFP 1-1.0), cAMP assay” value (from here on “RLX-A-AQ1-20KPEG Potency Ratio”) (dog RXFP1) was 4.7 ratio. For the same binder, the “cAMP Assay EC50 (nM), dog RXFP1/CHO-K1 cells” value (dog RXFP1) was 15 nM, the “Potency Ratio (RLX-A-AQ1-20KPEG/WT-RLX), cAMP assay, mouse RXFP1/CHO-K1 cells” value (mouse RXFP1) was 22 fold and the “RLX-A-AQ1-20KPEG Potency Ratio” value (mouse RXFP1) was 0.66 ratio. For the same binder, the “cAMP Assay EC50 (nM), mouse RXFP1/CHO-K1 cells” value (mouse RXFP1) was 2.1 nM, the “cAMP Assay EC50 (nM), inhibition of forskolin-induced cAMP, human RXFP3/CHO-K1 cells” value (human RXFP3) was over 3000 nM and the “cAMP Assay EC50 (nM), inhibition of forskolin-induced cAMP, human RXFP4/CHO-K1 cells” value (human RXFP4) was over 3000 nM. For the same binder, the “Potency Ratio (RLX-A-AQ1-20KPEG/WT-RLX), cAMP assay, cyno RXFP1/CHO-K1 cells” value (cynomolgus monkey RXFP1) was 33 fold, the “RLX-A-AQ1-20KPEG Potency Ratio” value (cynomolgus monkey RXFP1) was 1.6 ratio and the “cAMP Assay EC50 (nM), cyno RXFP1/CHO-K1 cells” value (cynomolgus monkey RXFP1) was 1.97 nM.
